Measurements from publication PMC4954775.
Numbering of substitutions follows the chain as printed. Numbers in names are those of the source.

B1: α-L-iduronidase (IDUA) (Homo sapiens) (protein)
chain: APHLVHVDAARALWPLRRFWRSTGFCPPLPHSQADQYVLSWDQQLNLAYVGAVPHRGIKQVRTHWLLELVTTRGSTGRGLSYNFTHLDGYLDLLRENQLLPGFELMGSASGHFTDFEDKQQVFEWKDLVSSLARRYIGRYGLAHVSKWNFETWNEPDHHDFDNVSMTMQGFLNYYDACSEGLRAASPALRLGGPGDSFHTPPRSPLSWGLLRHCHDGTNFFTGEAGVRLDYISLHRKGARSSISILEQEKVVAQQIRQLFPKFADTPIYNDEADPLVGWSLPQPWRADVTYAAMVVKVIAQHQNLLLANTTSAFPYALLSNDNAFLSYHPHPFAQRTLTARFQVNNTRPPHVQLLRKPVLTAMGLLALLDEEQLWAEVSQAGTVLDSNHTVGVLASAHRPQGPADAWRAAVLIYASDDTRAHPNRSVAVTLRLRGVPPGPGLVYVTRYLDNGLCSPDGEWRRLGRPVFPTAEQFRRMRAAEDPVAAAPRPLPAGGRLTLRPALRLPSLLLVHVCARPEKPPGQVTRLRALPLTQGQLVLVWSDEHVGSKCLWTYEIQFSQDGKAYTPVSRKPSTFNLFVFSPDTGAVSGSYRVRALDYWARPGPFSDPVPYLEVPVPRGPPSPGNP
B2: α-L-iduronidase (IDUA) (Homo sapiens; P533R) (protein)
chain: B1 chain with P506R

Substrate: Cc1cc(=O)oc2cc(O[C@@H]3O[C@@H](C(=O)O)[C@@H](O)[C@H](O)[C@H]3O)ccc12
Assay: purified protein

| Protein | Km |
| --- | --- |
| B1 | 27.0 ± 2.3 µM |
| B2 | 35.3 ± 3.66 µM |
